Consider one molecule from patent US20250199010A1 (ALAMAR BIOSCIENCES, published 2025).

In assay [1] the target is 7D12-(GGGS)4-9G8 (llama). Description: SPR (Biacore), 25 °C.
For assay [2], the target named is 7D12-FAS-(AP)11-VGG-[-AA]9G8 (llama). The assay can be described thus: SPR, murine EGFR-Fc.
In assay [3] the target is 7D12-ITA-(E4K4)4-IGG-[-AA]9G8 (llama). Description: SPR, murine EGFR-Fc.
Assay [4] addresses 7D12-(E4K4)5-VSG-[-AA]9G8. Description: SPR, murine EGFR-Fc. On the technique in general: Surface plasmon resonance follows binding to a sensor surface in real time, without labels.
In the next assay the target is 9G8-GS-7D12 (llama). The assay can be described thus: SPR (Biacore), 25 °C.
In assay [5] the target is 7D12-(GGGS)4-9G8 (llama). Description: SPR (Biacore), 25 °C. The source holds these as a separate data set.

Read-outs that look alike come from different tables or passages of the source.

B1: Mouse EGFR-Fc (Fc fusion, UniProt Q01279 25-647, looked up)
chain: LEEKKVCQGTSNRLTQLGTFEDHFLSLQRMYNNCEVVLGNLEITYVQRNYDLSFLKTIQEVAGYVLIALNTVERIPLENLQIIRGNALYENTYALAILSNYGTNRTGLRELPMRNLQEILIGAVRFSNNPILCNMDTIQWRDIVQNVFMSNMSMDLQSHPSSCPKCDPSCPNGSCWGGGEENCQKLTKIICAQQCSHRCRGRSPSDCCHNQCAAGCTGPRESDCLVCQKFQDEATCKDTCPPLMLYNPTTYQMDVNPEGKYSFGATCVKKCPRNYVVTDHGSCVRACGPDYYEVEEDGIRKCKKCDGPCRKVCNGIGIGEFKDTLSINATNIKHFKYCTAISGDLHILPVAFKGDSFTRTPPLDPRELEILKTVKEITGFLLIQAWPDNWTDLHAFENLEIIRGRTKQHGQFSLAVVGLNITSLGLRSLKEISDGDVIISGNRNLCYANTINWKKLFGTPNQKTKIMNNRAEKDCKAVNHVCNPLCSSEGCWGPEPRDCVSCQNVSRGRECVEKCNILEGEPREFVENSECIQCHPECLPQAMNITCTGRGPDNCIQCAHYIDGPHCVKTCPAGIMGENNTLVWKYADANNVCHLCHANCTYGCAGPGLQGCEVWPSGPKIPS
notes: also called muEGFR; murine EGFR-Fc; not shown: Fc part, not described
As for B1, the Kd (usually the free concentration of one partner at which half of the binding sites on the other are occupied at equilibrium, for simple one-to-one binding) with 7D12-(GGGS)4-9G8 [1] was 160 nM; in assay [2], 0.6 nM; in assay [3], 0.7 nM; in assay [4] it was 2.6 nM; in the assay with 9G8-GS-7D12, 58 nM; with 7D12-(GGGS)4-9G8 [5], 160 nM.
